We go through one substance from publication PMC9006298.

The experiment has as its target p.Arg127Gln GPIbα (amino acids Met1-Glu301) (human) (UniProt P07359). Nature of the experiment: SPR. On the technique in general: SPR reads the build-up and loss of mass on a sensor chip optically.

The Kd is a measure of binding affinity in units of concentration.

Sequence of UniProt P07359 (P07359 17-301 R127Q): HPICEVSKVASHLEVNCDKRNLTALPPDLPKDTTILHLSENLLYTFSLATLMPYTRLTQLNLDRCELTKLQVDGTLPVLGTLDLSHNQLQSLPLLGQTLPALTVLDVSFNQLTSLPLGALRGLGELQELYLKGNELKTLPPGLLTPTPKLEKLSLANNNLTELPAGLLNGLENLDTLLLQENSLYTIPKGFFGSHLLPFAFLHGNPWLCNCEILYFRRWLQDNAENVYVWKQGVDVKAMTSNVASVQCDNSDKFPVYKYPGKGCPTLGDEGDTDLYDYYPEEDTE

On to VWF A1 domain (domain or fragment), for which the equilibrium dissociation constant (Kd) amounted to 2.04 µM. This counts as single-digit micromolar.
